Results on two substances are retold here after patent US5536822A, “γ-phosphate linked adenosine 5' triphosphate sepharose” (University of Virginia Alumni Patents Foundation, priority 1994, dated 1996).

For data set [1], the system named is Nc1ncnc2c1ncn2[C@@H]1O[C@H](COP(=O)(O)OP(=O)(O)OP(=O)(O)O)[C@@H](O)[C@H]1O. Put plainly: purified protein, by the assay type. The settings on record: other: cyclic A kinase; pH 7.4.
Description: However, since the Km for ATP varied for each protein kinase tested, for comparative purposes it was convenient to determine the Ki /Km quotient (Table 1).
Data set [2] relates to T1, Nc1ncnc2c1ncn2[C@@H]1O[C@H](COP(=O)(O)OP(=O)(O)OP(=O)(O)O)[C@@H](O)[C@H]1O.
T1 construct: Department of Microbiology, University of Virginia (obtained from; not a purchase)
Kind of data set: Inhibition constant of the ATP derivative / Km for ATP, p60^c-src assay (peptide substrate). It counts as biochemical. The settings on record: other: p60^c-src; pH 7.4. The source says: [γ-^32 P] ATP was synthesized according to the procedure set forth in Johnson et al., Advances in Cyclic Nucleotide Research, 10:135-167 (1979). The catalytic subunit of cyclic-AMP-dependent protein kinase was purchased from Promega. p60^c-arc was obtained from the Department of Microbiology, University of Virginia. Recombinant p42^mapk was purified as described in Haystead et al., (1992) FEBS Lett., 306:17-22. STE7 antibody was obtained from the University of Vancouver, Canada.
The 42-kDa MAP kinase (p42^mapk) and MAPKK were assayed as described previously (Haystead et al. (1992) FEBS. Lett., 306:17-22). The cyclic-A kinase assays (30 μl) included 1 μg cyclic-A kinase, 2 mM Kemptide, 50 mM Hepes, pH 7.4, 1 mM dithiothreitol, 200 μM ATP, 5 mM MgCl2. […]
In order to assess the effectiveness of adenosine 5'-(γ-4-aminophenyl)triphosphate as an affinity ligand for protein kinases, the inhibition constants (Ki) of the derivative were determined for four different protein kinases, namely, p42^mapk, cyclic-A kinase, MAPKK and p60^c-arc (Table 1). […] This also facilitated comparisons for the relative binding constants determined with other ATP analogs (Flockhart et al. (1984) Eur. J. Biochem., 140:289-295; Hoppe et al. (1972) Eur. J. Biochem., 80:369-372; Taylor et al. (1990) Peptides and Protein Phosphorylation (Kemp et al.) pp 2-32, CRC Press).

For Cyclic A kinase (Bos taurus), the Km in data set [1] turned out to be 7.1 ± 0.51 µM. On to p60^c-src (Homo sapiens), for which the Km in data set [2] is 6.2 ± 1.30 µM.

What is called Km is the concentration of substrate that gives half-maximal velocity.
